Results as given in the supplement of paper PMC10567573.

B1: GLT8D2 (parent)
chain: QEAKLLHWNGRHKPWDFPSVHNDL

Variants of: B1
Experiment: protein stability index of a GFP-peptide fusion (GPS, HEK-293T) (PSI 1-6); higher = more stable
Conditions: c terminus: a fixed tail appended
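Note: lentivirally expressed fusions sorted by FACS into six bins by GFP to DsRed ratio, PSI derived from sequencing read proportions per bin multiplied by bin number.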

Protein stability index of substitutions, site by site:
W8: L 3.24, A 3.39, M 2.56, I 2.9, Q 3.71, F 2.62, S 3.47, H 2.85, R 3.01, E 3.47, P 2.63, D 3.5, C 3.2, Y 2.42, K 2.69, T 3.23, V 3.1, N 3.46, G 3.6
L5: I 2.73, P 3.05, C 2.77, Y 2.45, T 2.81, H 2.67, A 3.04, R 2.92, V 2.58, E 3.33, N 2.67, M 2.94, D 3.3, Q 2.83, W 2.59, K 3.14, S 3.27, G 3.26, F 2.51
D16: L 2.32, C 1.55, H 2.09, Q 2.48, W 2.5, S 2.46, G 2.39, F 1.58, M 2.12, P 2.46, R 2.33, N 2.42, Y 1.87, I 2.37, T 2.62, E 2.69, V 2.12, K 2.26, A 1.96
K4: C 2.3, R 2.87, M 2.64, S 2.99, W 2.7, P 2.83, N 2.68, Q 2.5, E 3.28, G 2.89, V 2.34, Y 2.13, L 2.56, I 2.47, D 2.67, A 2.81, F 2, T 2.92, H 2.84
N9: I 2, Y 2.33, V 2.25, A 2.71, T 2.59, E 2.73, L 1.83, R 2.46, D 2.87, S 2.67, F 1.98, K 2.92, H 2.73, W 1.75, M 2.1, Q 2.76, G 2.59, P 2.56, C 2.41
L6: A 2.87, M 2.3, D 2.79, I 2.67, Y 2.56, C 2.75, G 2.89, Q 2.76, E 3.74, W 2.26, T 2.68, V 2.48, S 2.91, F 2.83, K 2.52, H 2.62, P 2.7, R 2.85, N 2.71
P14: H 2.63, G 2.87, R 2.56, A 2.62, Y 2.09, Q 2.27, N 2.66, M 2.36, C 2.06, I 2.03, F 2.45, T 2.52, S 2.68, D 3.29, K 2.69, W 2.19, V 2.09, E 3.16, L 2.33
S19: L 1.96, N 2.84, K 2.6, D 3.43, H 2.58, W 1.61, Q 2.95, Y 2.12, I 2.5, M 2.79, G 2.51, V 2.56, C 2.38, F 2.31, A 3.21, T 2.33, E 3.92, R 2.38, P 2.7
P18: C 2.6, A 2.23, F 2.18, Y 2.24, D 3.06, H 2.58, M 2.26, L 2.25, R 2.41, G 2.32, W 1.8, T 2.32, I 2.23, Q 2.83, V 2.82, N 2.72, E 2.98, S 2.59, K 2.99
V20: C 2.54, D 3.53, Q 3.17, N 3.23, K 2.56, I 2.78, H 2.77, M 2.43, A 2.97, P 2.81, E 3.63, G 2.84, R 2.94, F 2.53, L 2.41
R11: K 2.61, V 2.62, N 3.05, D 3.33, S 2.82, H 2.64, Q 3.35, E 3.58, I 2.76, P 2.33, G 2.64, W 2.18, F 2.58, C 2.55, L 2.34, Y 2.28, T 3.11, A 3.24, M 3.1
H7: Q 2.9, W 2.84, V 2.1, C 2.25, R 2.81, K 2.48, F 2.41, T 2.88, I 2.25, D 3.16, Y 1.85, S 2.69, L 2.15, N 2.54, A 2.87, P 2.94, G 2.63, M 2.56, E 2.98
A3: S 2.69, G 2.6, Q 2.58, R 1.95, K 2.59, I 2.24, Y 2.19, T 2.75, L 2.59, W 2.24, P 2.33, H 2.83, N 2.84, V 2.5, M 3.06
G10: R 2.79, Q 2.7, W 2.5, H 2.48, L 2.42, Y 2.9, K 2.48, I 2.48, V 2.15, M 2.53, D 2.46, P 2.69, N 2.8, T 2.49, S 2.69, C 1.49, E 2.8, F 2.37, A 2.75
F17: D 3.36, Y 2.81, A 3.45, V 3.18, L 3.05, N 2.85, R 3.04, G 3.15, T 3.17, P 3.24, E 4.18, M 3.22, S 3.96, H 3.24, Q 3.3, W 2.58, K 3.16, C 3.14, I 3.1
W15: C 3.22, Q 4.37, I 3.02, E 4.14, A 3.7, H 3.17, L 2.87, P 3.81, M 3.48, T 3.3, R 3.55, G 3.76, F 2.88, D 3.59, K 3.27, Y 2.62, S 3.52, N 3.43, V 3.49
H12: E 3.19, Y 2.28, T 2.79, N 2.65, R 2.77, A 2.36, P 2.68, F 2.13, G 2.59, K 2.73, W 2.54, S 2.77, L 2.45, Q 2.58, D 3.26, V 2.61, C 2.71, M 2.6, I 2.56
K13: V 2.1, Y 2.43, I 2.35, E 2.92, G 2.62, C 2.29, R 2.86, D 3.73, S 2.27, H 2.47, L 2.26, F 2.69, Q 2.7, A 2.85, P 3.04, M 2.94, T 2.84, N 2.77, W 2.29
